{
  "source": "patent US20160264680A1",
  "about": "(INSERM INSTITUT NATIONAL DE LA SANTE ET DE LA RECHERCHE …, published 2016)",
  "molecules": {"B1": {"name": "scFv 2D1, soluble monovalent scFv (scFv)", "scFv": "MAQVKLQESGGGLVQPGGSLRLSCAASGFTFDSYAMSWVRQAPGKGLEWVSYITSSSSTIYYVDSVKGRFTISRDNAKNSLYLQMNSLRDEDTAVYYCARLRNSEGYWYFDLWGRGTLVTVSSGGGGSGGGGSGGGGSQSALTQDPAVSVALGQTVRITCQGDSLRSYFASWYQQKPGQAPLLVMYGQNIRPSGIPDRFSGSSSGNSASLTITGAQAEDEADYYCNSRDSSYNHWVFGGGTKLTVLG", "notes": "Expressed from phagemid pHEN in E. coli TG1, used as culture supernatant"}, "B2": {"name": "affinity matured scFv-3G1A2 displayed on yeast (scFv)", "chain": "MAQVQLVESWGGVAQPGRSLRLSCAASGFTFSSFAMHWVRQAPGKGLEWVAVTSYDGSNEYYADSVKGRFTISRDNSKNTLYLQMNSLRAEDTAVYYCAKAMVRGVTFGDLDYWGQGTLVTVSSGGGGSGGGGSGGGGSSELTQDPAVSVALGQTVRKTCQGDSLKSYYASWYQQKPGQAPVLVIYGENSRPSGIPDRFSGSSSGNTASLTITGAQAEDEADYYCCSRATGGYHRIFGGGTKLTVLG"}, "B3": {"name": "affinity matured scFv-2D1C7 displayed on yeast (scFv)", "chain": "MAQVKLQESGGGLVQPGGSLRLSCAASGFTFDSYAMSWVRQAPGKGLEWVSYITSSSSTIYYVDSVKGRFTISRDNAKNSLYLQMNSLRDEDTAVYYCARLRNSEGYWYFDLWGRGTLVTVSSGGGGSGGGGSGGGGSQSVLTQDPAVSVALGQTVRITCQGDSLRSYYASWYQQKPGQAPLLVMYGENIRPSGIPDRFSGSTSGNSASLTITGAQAEDEADYYCNSRDSSGNHLNWVFGGGTKLTVLG"}, "B4": {"name": "scFv 3G1, soluble monovalent scFv (scFv)", "scFv": "MAQVQLVESWGGVAQPGRSLRLSCAASGFTFSSFAMHWVRQAPGKGLEWVAVTSYDGSNEYYADSVKGRFTISRDNSKNTLYLQMNSLRAEDTAVYYCAKAMVRGVTFGDLDYWGQGTLVTVSSGGGGSGGGGSGGGGSSELTQDPAVSVALGQTVRITCQGDSLRSYYASWYQQKPEQAPVLVIYGENSRPSGIPDRFSGSSSGNTASLTITGAQAEDEADYYCNSRDSSGTHLRVFGGGTKLTVLG", "notes": "as for B1"}},
  "key": {"[1]": {"target": "wild type human KIT on cells (TF-1, Ba/F3-KIT, UT-7/EPO) (human) (UniProt P10721)", "sequence (P10721 26-976)": "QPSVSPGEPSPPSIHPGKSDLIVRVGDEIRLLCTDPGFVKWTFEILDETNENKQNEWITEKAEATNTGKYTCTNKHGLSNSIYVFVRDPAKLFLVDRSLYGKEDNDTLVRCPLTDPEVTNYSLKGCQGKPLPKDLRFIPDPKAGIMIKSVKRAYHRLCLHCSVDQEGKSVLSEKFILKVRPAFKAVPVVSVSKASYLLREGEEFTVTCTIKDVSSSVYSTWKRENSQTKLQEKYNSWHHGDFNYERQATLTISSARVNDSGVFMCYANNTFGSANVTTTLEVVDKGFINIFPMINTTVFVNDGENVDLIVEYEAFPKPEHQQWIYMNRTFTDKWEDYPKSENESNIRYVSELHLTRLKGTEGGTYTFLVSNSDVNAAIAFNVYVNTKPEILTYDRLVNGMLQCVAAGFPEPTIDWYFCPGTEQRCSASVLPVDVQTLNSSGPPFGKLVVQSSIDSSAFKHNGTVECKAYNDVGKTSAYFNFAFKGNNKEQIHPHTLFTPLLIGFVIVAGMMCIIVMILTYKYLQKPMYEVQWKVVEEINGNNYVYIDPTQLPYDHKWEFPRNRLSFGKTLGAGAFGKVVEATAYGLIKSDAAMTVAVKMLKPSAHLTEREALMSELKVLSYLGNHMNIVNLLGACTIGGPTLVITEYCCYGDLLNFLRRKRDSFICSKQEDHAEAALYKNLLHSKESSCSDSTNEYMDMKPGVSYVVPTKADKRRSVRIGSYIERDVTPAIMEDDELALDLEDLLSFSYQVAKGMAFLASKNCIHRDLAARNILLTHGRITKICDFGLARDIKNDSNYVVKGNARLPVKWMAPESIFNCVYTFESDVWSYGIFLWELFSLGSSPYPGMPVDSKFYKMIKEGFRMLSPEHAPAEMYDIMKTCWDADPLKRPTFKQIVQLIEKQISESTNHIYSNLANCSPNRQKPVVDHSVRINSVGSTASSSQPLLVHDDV", "test": "cell-based or functional assay"}, "[2]": {"target": "T1, recombinant soluble human KIT extracellular domain (KIT-ECD), C-terminal 6His tag (human, UniProt P10721 26-509, biotinylated in the yeast display assays (sites not given))", "T1 construct": "range 26-509; Made in High Five insect cells with a baculovirus, purified on Ni-NTA; major protein of 60 kD; Monovalent; also called c-KIT ECD; recombinant KIT", "T1 sequence (P10721 other isoform, or with tags, fused parts or gaps limits assumed)": "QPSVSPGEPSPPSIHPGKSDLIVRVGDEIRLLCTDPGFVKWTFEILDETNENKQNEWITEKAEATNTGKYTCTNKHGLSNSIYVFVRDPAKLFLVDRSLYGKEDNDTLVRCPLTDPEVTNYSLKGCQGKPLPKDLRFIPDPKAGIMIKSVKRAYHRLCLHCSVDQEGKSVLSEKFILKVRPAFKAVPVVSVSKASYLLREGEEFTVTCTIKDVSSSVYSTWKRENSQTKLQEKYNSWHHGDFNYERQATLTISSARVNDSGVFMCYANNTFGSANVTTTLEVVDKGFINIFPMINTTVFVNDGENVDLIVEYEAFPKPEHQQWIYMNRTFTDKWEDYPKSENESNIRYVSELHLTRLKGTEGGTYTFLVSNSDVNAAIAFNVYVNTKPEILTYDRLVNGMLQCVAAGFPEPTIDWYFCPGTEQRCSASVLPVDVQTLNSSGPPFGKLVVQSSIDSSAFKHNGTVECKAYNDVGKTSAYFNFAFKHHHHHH", "test": "soluble scFv ELISA on KIT-ECD"}, "[3]": {"target": "T2, human KIT V560G D816V as expressed on HMC1.2 mastocytoma cells (human, UniProt P10721 26-976)", "T2 construct": "whole, on cells; also called endogenous KIT on HMC1.2", "T2 sequence (P10721 26-976 V560G/D816V)": "as the sequence (P10721 26-976) above, with V535G, D791V counted along it", "test": "FACS on HMC1.2 cells, soluble scFv from concentrated bacterial supernatant, detected with anti-c-myc and anti-mouse Ig-PE [panel D]", "description": "(D) FACS analysis of scFv binding to HMC1.2 cells. ScFvs were induced with IPTG 1 mM overnight at 25° C. from TG1 bacterial containing pHEN phagemid. Supernatant was collected, concentrated on Amicon ultra-4 centrifugal units and incubated with HMC1.2 cells at 4° C. ScFv binding to cells was detected with an anti-c-myc antibody and anti-mouse immunoglobulins conjugated to phycoerythrin. Fluorescence was measured by FACS.\nTwo hundred thousand HMC1.2 cells were resuspended in 100 μL of PBS-1% FBS at 4° C. (FACS buffer). One hundred μL of culture supernatant was added to the cells during 2 hours at 4° C. Cells were washed with FACS buffer and scFv binding to cells was detected with an anti-c-myc antibody (9E10; Sigma) followed by goat anti-mouse immunoglobulins (Ig) conjugated to PE (Beckton Dickinson)."}, "[4]": {"target": "T1, recombinant soluble human KIT …", "test": "flow cytometry of yeast displaying the scFv with biotinylated KIT-ECD, streptavidin-PE"}},
  "data": [
    {"molecule": "mouse SCF in CHO-KL culture supernatant (from UniProt P20826 26-190) (ligand)", "values": [
      {"measurement": "KIT surface down-regulation on UT-7/EPO cells after 1 hour (FACS with 104D2)", "setting": "[1]", "result": 70, "unit": "%"}
    ]},
    {"molecule": "B1", "values": [
      {"measurement": "binding result", "setting": "[2]", "result": "binds"},
      {"measurement": "binding result", "setting": "[3]", "result": "binds"}
    ]},
    {"molecule": "B2", "values": [
      {"measurement": "Kd", "setting": "[4]", "result": 1.7, "unit": "nM"}
    ]},
    {"molecule": "B3", "values": [
      {"measurement": "Kd", "setting": "[4]", "result": 4.2, "unit": "nM"}
    ]},
    {"molecule": "B4", "values": [
      {"measurement": "binding result", "setting": "[2]", "result": "binds"},
      {"measurement": "binding result", "setting": "[3]", "result": "binds"}
    ]}
  ]
}
